In doi:10.1101/2021.02.26.433144v1 (biorxiv, 2021):
Positions count from the first letter of the chain named. Numbers in names are those of the source.

Legend:
[1] = biological target: T1, TtPPO (Thermothelomyces thermophilus, UniProt G2QLD3, Y316V); test: spectrophotometric oxidation assay, non-linear regression; settings: 0.1 M sodium phosphate pH 7, 40 °C, 0-5 mM substrate
T1 sequence (G2QLD3 23-424 Y316V): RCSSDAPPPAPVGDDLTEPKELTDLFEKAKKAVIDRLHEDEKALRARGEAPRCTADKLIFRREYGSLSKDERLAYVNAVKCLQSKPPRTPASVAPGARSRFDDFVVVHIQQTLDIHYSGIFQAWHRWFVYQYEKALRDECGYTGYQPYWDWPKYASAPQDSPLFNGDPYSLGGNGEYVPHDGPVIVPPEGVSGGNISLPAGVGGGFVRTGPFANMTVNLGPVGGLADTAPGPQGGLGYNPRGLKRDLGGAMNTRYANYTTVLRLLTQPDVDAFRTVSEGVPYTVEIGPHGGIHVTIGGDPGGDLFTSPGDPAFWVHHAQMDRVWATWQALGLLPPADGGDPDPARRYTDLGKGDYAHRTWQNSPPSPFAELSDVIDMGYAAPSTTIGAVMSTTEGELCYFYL

[2] = biological target: T2, TtPPO (Thermothelomyces thermophilus, UniProt G2QLD3); test: as above; settings: 0.1 M sodium phosphate pH 7, 40 °C, 0-5 mM substrate
T2 sequence (G2QLD3 23-424): T1 sequence (G2QLD3 23-424 Y316V) with V294Y

[3] = biological target: T3, TtPPO (Thermothelomyces thermophilus, UniProt G2QLD3, G312N/Y316V); test: as above; settings: 0.1 M sodium phosphate pH 7, 40 °C, 0-5 mM substrate
T3 sequence (G2QLD3 23-424 G312N/Y316V): T1 sequence (G2QLD3 23-424 Y316V) with G290N

[4] = biological target: T4, TtPPO (Thermothelomyces thermophilus, UniProt G2QLD3, G312N/L326A); test: as above; settings: 0.1 M sodium phosphate pH 7, 40 °C, 0-5 mM substrate
T4 sequence (G2QLD3 23-424 G312N/L326A): T1 sequence (G2QLD3 23-424 Y316V) with G290N, V294Y, L304A

[5] = biological target: T5, TtPPO (Thermothelomyces thermophilus, UniProt G2QLD3, G312N); test: as above; settings: 0.1 M sodium phosphate pH 7, 40 °C, 0-5 mM substrate
T5 sequence (G2QLD3 23-424 G312N): T1 sequence (G2QLD3 23-424 Y316V) with G290N, V294Y

[6] = biological target: T6, TtPPO (Thermothelomyces thermophilus, UniProt G2QLD3, L326A); test: as above; settings: 0.1 M sodium phosphate pH 7, 40 °C, 0-5 mM substrate
T6 sequence (G2QLD3 23-424 L326A): T1 sequence (G2QLD3 23-424 Y316V) with V294Y, L304A

[7] = substrate: Oc1ccc(O)cc1; test: purified protein; settings: 0.1 M sodium phosphate pH 7, 40 °C, 0-70 mM substrate
[8] = substrate: N[C@@H](Cc1ccc(O)c(O)c1)C(=O)O; test: purified protein; settings: 0.1 M sodium phosphate pH 7, 40 °C, 0-7 mM substrate
[9] = substrate: Oc1cc(O)c2c(c1)O[C@H](c1ccc(O)c(O)c1)[C@@H](O)C2; test: purified protein; settings: 0.1 M sodium phosphate pH 7, 40 °C, 0-10 mM substrate
[10] = substrate: Oc1ccccc1O; test: purified protein; settings: 0.1 M sodium phosphate pH 7, 40 °C, 0-60 mM substrate
[11] = substrate: COc1ccccc1O; test: purified protein; settings: 0.1 M sodium phosphate pH 7, 40 °C, 0-15 mM substrate

`Oc1ccc(Cl)cc1O` [4-chlorocatechol] showed a Km [1] of 2200 µM, a Km [2] of 1800 µM and a Km [3] of 4300 µM. For the same molecule, the Km [4] was 500 µM, the Km [5] was 3500 µM and the Km [6] was 400 µM.

B1: TtPPO (Thermothelomyces thermophilus ATCC 42464) (protein)
chain: T1 sequence (G2QLD3 23-424 Y316V) with V294Y
For B1, the Km [7] was 59.1(6.0) mM, the kcat [7] was 67.5(3.9) min^-1 and the Km [8] was 2.4(0.7) mM. The kcat [8] was 4.3(0.5) min^-1, the Km [9] was 33.7(14.0) mM and the kcat [9] was 1619.1(549.2) min^-1. The Km [10] was 32.5(4.3) mM, the kcat [10] was 8.6(0.6) min^-1 and the Km [11] was 4.6(0.6) mM. The kcat [11] was 39.3(2.2) min^-1.

B2: TtPPO (Thermothelomyces thermophilus ATCC 42464; G312N) (protein)
chain: T1 sequence (G2QLD3 23-424 Y316V) with G290N, V294Y
For B2, the Km [9] was 4.3(1.0) mM and the kcat [9] was 2.9(0.3) min^-1.

B3: TtPPO (Thermothelomyces thermophilus ATCC 42464; L326A) (protein)
chain: T1 sequence (G2QLD3 23-424 Y316V) with V294Y, L304A
For B3, the Km [9] was 2.8(0.5) mM and the kcat [9] was 415.0(35.1) min^-1.

B4: TtPPO (Thermothelomyces thermophilus ATCC 42464; Y316V) (protein)
chain: T1 sequence (G2QLD3 23-424 Y316V)
With B4 the Km [9] was 9.7(2.4) mM and the kcat [9] was 547.3(84.6) min^-1.

B5: TtPPO (Thermothelomyces thermophilus ATCC 42464; G312N/L326A) (protein)
chain: T1 sequence (G2QLD3 23-424 Y316V) with G290N, V294Y, L304A
B5 was tested, and the Km [9] was 4.3(0.3) mM and the kcat [9] was 337.9(11.2) min^-1.

B6: TtPPO (Thermothelomyces thermophilus ATCC 42464; G312N/Y316V) (protein)
chain: T1 sequence (G2QLD3 23-424 Y316V) with G290N
With B6 the Km [9] was 10.3(0.8) mM and the kcat [9] was 33.3(1.7) min^-1.
